Literature values, collected in patent US6663886B2, “Inhibition of cell-cell binding by lipid assemblies” (Regents of the University of California, priority 1997, dated 2003).

Target: T1, P-selectin (Homo sapiens, UniProt P16109)
T1 sequence (P16109 42-830): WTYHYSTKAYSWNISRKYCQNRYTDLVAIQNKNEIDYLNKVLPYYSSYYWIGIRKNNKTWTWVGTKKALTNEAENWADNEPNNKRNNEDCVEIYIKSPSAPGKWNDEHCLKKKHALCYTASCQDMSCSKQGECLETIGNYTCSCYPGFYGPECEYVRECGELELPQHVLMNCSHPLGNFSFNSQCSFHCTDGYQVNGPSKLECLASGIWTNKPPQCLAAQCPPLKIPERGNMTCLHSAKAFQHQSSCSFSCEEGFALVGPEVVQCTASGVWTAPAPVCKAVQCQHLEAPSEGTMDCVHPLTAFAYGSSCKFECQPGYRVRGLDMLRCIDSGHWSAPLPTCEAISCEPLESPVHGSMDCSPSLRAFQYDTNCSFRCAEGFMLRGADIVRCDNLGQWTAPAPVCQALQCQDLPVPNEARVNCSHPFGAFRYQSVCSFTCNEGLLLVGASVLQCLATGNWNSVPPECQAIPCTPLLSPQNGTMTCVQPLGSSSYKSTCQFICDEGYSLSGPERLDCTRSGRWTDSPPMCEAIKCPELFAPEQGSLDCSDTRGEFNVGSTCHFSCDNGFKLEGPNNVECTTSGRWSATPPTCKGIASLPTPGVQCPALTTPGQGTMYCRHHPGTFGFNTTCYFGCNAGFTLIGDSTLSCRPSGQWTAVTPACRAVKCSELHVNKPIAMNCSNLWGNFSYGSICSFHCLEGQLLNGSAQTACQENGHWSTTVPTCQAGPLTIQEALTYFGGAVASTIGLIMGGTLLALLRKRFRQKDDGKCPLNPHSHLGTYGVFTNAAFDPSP
Conditions: literature (Nelson et al. 1993; Moore et al. 1991)

binding affinity of P-selectin: in the nM range
B1: natural ligand: natural ligand of P-selectin, P-selectin glycoprotein ligand 1 (protein, UniProt Q14242 42-412, looked up)
P-selectin glycoprotein …: QATEYEYLDYDFLPETEPPEMLRNSTDTTPLTGPGTPESTTVEPAARRSTGLDAGGAVTELTTELANMGNLSTDSAAMEIQTTQPAATEAQTTQPVPTEAQTTPLAATEAQTTRLTATEAQTTPLAATEAQTTPPAATEAQTTQPTGLEAQTTAPAAMEAQTTAPAAMEAQTTPPAAMEAQTTQTTAMEAQTTAPEATEAQTTQPTATEAQTTPLAAMEALSTEPSATEALSMEPTTKRGLFIPFSVSSVTHKGIPMAASNLSVNYPVGAPDHISVKQCLLAILILALVATIFFVCTVVLAVRLSRKGHMYPVRNYSPTEMVCISSLLPDGGEGPSATANGGLSKAKSPGLTPEPREDREGDDLTLHSFLP
